Laboratory results reported in the supplement of paper PMC6755084.

System: F1*sub RNA substrate (template-directed ligation)
Test: fraction ligated after 30 min (ligated reads / total reads); higher = more ligase activity; sequences stand for … in GAGACCGCAACTGAAAAGTTGT…AGTTCTGCACGTAGAAGCAAAAGGC
Details: 42 °C
Summary of the method: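 The ligase ribozyme variants were produced by PCR amplification of oligo-pool templates, T7 transcription and purification on gel. Their ligated and unligated forms were gel-separated, then reverse transcribed with barcoded primers before MiSeq sequencing. Core bases were filtered at a quality of ≥20, and fraction ligated per variant was ligated reads over total reads.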

Row | Sequence | fraction ligated
1 | TTCACTGTCGTAAGACACTTTGGATGGTTGA [3d352] | 0.498
2 | TTCACTTGCGAAGACACTTTGGATGGGTTGA [3d373] | 0.702
3 | TATCATGCGTAAGACACTTTGGATGGGTTGA [3d1123] | 0.833
4 | TATCACGTCGTAAGAACTTTGGATGGGTTGA [3d1301] | 0.825
5 | TATCACTTGTGTAAGCACTTTGGATGGGTTG [3d1763] | 0.851
6 | TTACTTGTCGTAGACACTTTGGATGGGTTGA [3d285] | 0.00592
7 | TATCACTTTCGTAAGACACTTTGGTGGGTTA [3d1576] | 0.0309
8 | TATCACTTGTCGTAGACATTTGGATGGGTTG [3d2034] | 0.815
9 | TATCACTTGTGTAAACACTTTGGATGGTTGA [3d1751] | 0.328
10 | TATACTTGTCGAAGACACTTTGGTGGGTTGA [3d865] | 0.0282
11 | TATCACTTGTCGAAGCACTTTGGAGGGTTGA [3d1931] | 0.108
12 | TTCACTGTCGTAAGACACTTTGATGGGTTGA [3d349] | 0.653
13 | TATCACTTGTCGTAAGCATTTGGATGGTTGA [3d2125] | 0.17
14 | TACACTTGTCGTAAGAACTTTGGTGGGTTGA [3d695] | 0.0304
15 | TATCACTTGGTAAGACACTTTGGATGGGTTA [3d1597] | 0.733
16 | TTCACTTGTCGTAAGACACTTTGATGGGTTG [3d496] | 0.298
17 | TATACTTGGTAAGACACTTTGGATGGGTTGA [3d812] | 0.653
18 | ATCATTGTGTAAGACACTTTGGATGGGTTGA [3d89] | 0.79
19 | TATCACTTGCGTAAGACTTTGGATGGGTTGA [3d1649] | 0.849
20 | TATCACTGCTAAGACACTTTGGATGGGTTGA [3d1328] | 0.81
21 | TATCACTTGTCGAAGACACTTTGGTGGGTTA [3d1972] | 0.103

Row | Sequence | fraction ligated
22 | TATCATTGTCGTAAACCTTTGGATGGGTTGA [3d1228] | 0.79
23 | TATACTTGTCGTAGACACTTTGGATGGGTTG [3d882] | 0.232
24 | TATCACTTTCGTAAGACACTTGGATGGGTTA [3d1566] | 0.477
25 | TACACTGTCGTAAGACCTTTGGATGGGTTGA [3d576] | 0.752
26 | TTCACTTGTCGTAAGAACTTTGGTGGGTTGA [3d465] | 0.019
27 | TTCACTTGTCGTAAGACACTTTGATGGGTTA [3d495] | 0.0395
28 | TATCACTTGTCGTAAGCACTGGATGGGTTGA [3d2128] | 0.771
29 | ACACTTGTCGTAAGACACTTTGGATGGTTGA [3d43] | 0.662
30 | TTCACTTGTCGTAAGACACTTGGATGGTTGA [3d488] | 0.161
31 | TACACTTGTCGTAGACATTTGGATGGGTTGA [3d664] | 0.464
32 | TATCACTTGTCGTAAGACACTTGATGGTTGA [3d2241] | 0.0196
33 | TATACTTGTCGTAAGAACTTGGATGGGTTGA [3d904] | 0.717
34 | TATATTGTCGTAAGCACTTTGGATGGGTTGA [3d766] | 0.411
35 | TATCACTTGTCGTAAGCCTTTGGATGGGTTGA [2d245] | 0.781
36 | ATCATTGTCGTAAGACATTTGGATGGGTTGA [3d97] | 0.729
37 | TATCACTGTCGTAAGCACTTTGGTGGGTTGA [3d1413] | 0.11
38 | TATCACTTGTCGTAAGAATTTGGTGGGTTGA [3d2154] | 0.135
39 | TTCACTTGTCGTAAGACACTTGATGGGTTGA [3d485] | 0.0622
40 | TATCACTTTCGTGACACTTTGGATGGGTTGA [3d1506] | 0.813
41 | TACATTGTCGTAAGACACTTGGATGGGTTGA [3d559] | 0.19
42 | TATACTTGTCGTAAGACATTTGGAGGGTTGA [3d921] | 0.0163

Row | Sequence | fraction ligated
43 | TATCACTTGTCGTAAGACACTTGGATGGTTGA [2d280] | 0.0762
44 | TATCATTGTCGTAAGACACTTTGGATGGTTA [3d1289] | 0.203
45 | TACACTTGTCGTAAGACCTTTGGAGGGTTGA [3d703] | 0.0299
46 | TATCACTTGTGAAGACACTTTGGAGGGTTGA [3d1727] | 0.0789
47 | TATCACTTGCGTAAACACTTTGGAGGGTTGA [3d1645] | 0.0516
48 | TATCACTTGTCTAAGACTTTGGATGGGTTGA [3d1846] | 0.786
49 | TATCACTTGTCGTAAGACATTTGGAGGGTTGA [2d272] | 0.015
50 | TATCACTTGTCGTAAACACTTTGGATGGGTTA [2d242] | 0.77
51 | TATCACTTGTCGTAAGAACTTTGATGGGTTG [3d2171] | 0.726
52 | TATCACTTGTCGTAAGACTTTGATGGGTTGA [3d2108] | 0.76
53 | TATCACTTGTCGTAAACACTTGGTGGGTTGA [3d2083] | 0.119
54 | TTACTTGTCGTAAGACACTTTGGTGGGTTGA [3d293] | 0.031
55 | TTCACTTGTCGTAAGACTTTGGATGGGTTGA [3d452] | 0.752
56 | TATCACTTGCGTAAGACATTTGGATGGGTTG [3d1680] | 0.84
57 | TATCCTTGTGTAAGACACTTTGGATGGGTTG [3d1014] | 0.745
58 | TATCACTTGTCGTAAGACCTTTGGTGGTTGA [3d2197] | 0.0467
59 | ATCACTTTCGTAAGACACTTTGGATGGGTTG [3d139] | 0.777
60 | TATACTTGTCGTAAGACACTTTGGAGGGTTA [3d943] | 0.00392
61 | TATCACTTGCTAAGACACTTTGGATGGGTTGA [2d164] | 0.822
62 | TTCACTTGTCGTGACACTTTGGATGGGTTGA [3d429] | 0.255
63 | TATCCTTGTCGTAGACACTTGGATGGGTTGA [3d1048] | 0.782

Row | Sequence | fraction ligated
64 | TATCATTGTCGAAGACACTTTGATGGGTTGA [3d1208] | 0.772
65 | TATCACTTGCGTAAGAACTTTGGATGGTTGA [3d1664] | 0.0836
66 | TATCACTTGTCTAAGACACTTTGGATGGTTGA [2d205] | 0.588
67 | TATCATTGTCGTAAGACATTTGGTGGGTTGA [3d1264] | 0.421
68 | TATCACTTGTGTAAGAACTTTGGTGGGTTGA [3d1767] | 0.0854
69 | TATCCTTGTCTAAGACATTTGGATGGGTTGA [3d1021] | 0.793
70 | TATCCTTGTCGTAGACACTTTGGATGGGTTG [3d1054] | 0.786
71 | TATCACTTTCGAAGAACTTTGGATGGGTTGA [3d1496] | 0.843
72 | TATCACTTGTCGTAAGACACTGGAGGGTTGA [3d2234] | 0.00473
73 | TATACTTGCGTAAGACATTTGGATGGGTTGA [3d820] | 0.722
74 | TATCACTTTCGTAAGACACTTTGGATGGGTTA [2d161] | 0.751
75 | TATCATTGCTAAGACACTTTGGATGGGTTGA [3d1157] | 0.784
76 | TATCACTTTCGTAAGACACTTTGATGGTTGA [3d1571] | 0.0696
77 | TATCACTTGTCGTAGCACTTTGGAGGGTTGA [3d2009] | 0.101
78 | TATCACTGTCGTAAACACTTTGGAGGGTTGA [3d1404] | 0.0511
79 | TATCACTTGTCGTAGAACTTTGGATGGGTTA [3d2019] | 0.854
80 | TATCACTTTCGTAAGACACTTTGGATGGTTA [3d1581] | 0.0764
81 | ATCACTTGTCGTAAGAACTTGGATGGGTTGA [3d232] | 0.751
82 | TATCACTTGTGTAAGACATTTGGAGGGTTGA [3d1782] | 0.0398
83 | TATCACTGTCGTAAACACTTGGATGGGTTGA [3d1401] | 0.794
